According to IntAct's records for PubMed 29892012:

B1: Coiled-coil domain-containing protein 14 (Homo sapiens), Q49A88 (parent)
chain: MKRGIRRDPFRKRKLGGRAKKVREPTAVNSFYREASLPSVWASLRRREMVRSGARPGQVLSSGRHTGPAKLTNGKKATYLRKIPRFNADSGYSIHSDSESQAETVHGLDGCASLLRDILRNEDSGSETAYLENRSNSRPLESKRYGSKKKRHEKHTIPLVVQKETSSSDNKKQIPNEASARSERDTSDLEQNWSLQDHYRMYSPIIYQALCEHVQTQMSLMNDLTSKNIPNGIPAVPCHAPSHSESQATPHSSYGLCTSTPVWSLQRPPCPPKVHSEVQTDGNSQFASQGKTVSATCTDVLRNSFNTSPGVPCSLPKTDISAIPTLQQLGLVNGILPQQGIHKETDLLKCIQTYLSLFRSHGKETHLDSQTHRSPTQSQPAFLATNEEKCAREQIREATSERKDLNIHVRDTKTVKDVQKAKNVNKTAEKVRIIKYLLGELKALVAEQEDSEIQRLITEMEACISVLPTVSGNTDIQVEIALAMQPLRSENAQLRRQLRILNQQLREQQKTQKPSGAVDCNLELFSLQSLNMSLQNQLEESLKSQELLQSKNEELLKVIENQKDENKKFSSIFKDKDQTILENKQQYDIEITRIKIELEEALVNVKSSQFKLETAEKENQILGITLRQRDAEVTRLRELTRTLQTSMAKLLSDLSVDSARCKPGNNLTKSLLNIHDKQLQHDPAPAHTSIMSYLNKLETNYSFTHSEPLSTIKNEETIEPDKTYENVLSSRGPQNSNTRGMEEASAPGIISALSKQDSDEGSETMALIEDEHNLDNTIYIPFARSTPEKKSPLSKRLSPQPQIRAATTQLVSNSGLAVSGKENKLCTPVICSSSTKEAEDAPEKLSRASDMKDTQLLKKIKEAIGKIPAATKEPEEQTACHGPSGCLSNSLQVKGNTVCDGSVFTSDLMSDWSISSFSTFTSRDEQDFRNGLAALDANIARLQKSLRTGLLEK
partner: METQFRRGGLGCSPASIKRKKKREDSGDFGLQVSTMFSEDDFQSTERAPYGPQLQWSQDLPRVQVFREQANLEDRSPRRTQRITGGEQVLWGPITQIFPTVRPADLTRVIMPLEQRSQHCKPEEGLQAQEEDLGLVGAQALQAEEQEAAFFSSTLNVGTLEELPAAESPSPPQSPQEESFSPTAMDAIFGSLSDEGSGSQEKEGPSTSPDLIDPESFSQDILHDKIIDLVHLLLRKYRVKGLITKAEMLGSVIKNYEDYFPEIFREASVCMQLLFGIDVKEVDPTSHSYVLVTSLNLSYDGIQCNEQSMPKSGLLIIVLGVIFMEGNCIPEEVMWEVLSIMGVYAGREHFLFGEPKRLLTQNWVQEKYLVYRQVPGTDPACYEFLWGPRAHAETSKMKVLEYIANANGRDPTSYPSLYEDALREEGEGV
B2: E3 ubiquitin-protein ligase LNX (Homo sapiens), Q8TBB1 (parent)
chain: MNQPESANDPEPLCAVCGQAHSLEENHFYSYPEEVDDDLICHICLQALLDPLDTPCGHTYCTLCLTNFLVEKDFCPMDRKPLVLQHCKKSSILVNKLLNKLLVTCPFREHCTQVLQRCDLEHHFQTSCKGASHYGLTKDRKRRSQDGCPDGCASLTATAPSPEVSAAATISLMTDEPGLDNPAYVSSAEDGQPAISPVDSGRSNRTRARPFERSTIRSRSFKKINRALSVLRRTKSGSAVANHADQGRENSENTTAPEVFPRLYHLIPDGEITSIKINRVDPSESLSIRLVGGSETPLVHIIIQHIYRDGVIARDGRLLPGDIILKVNGMDISNVPHNYAVRLLRQPCQVLWLTVMREQKFRSRNNGQAPDAYRPRDDSFHVILNKSSPEEQLGIKLVRKVDEPGVFIFNVLDGGVAYRHGQLEENDRVLAINGHDLRYGSPESAAHLIQASERRVHLVVSRQVRQRSPDIFQEAGWNSNGSWSPGPGERSNTPKPLHPTITCHEKVVNIQKDPGESLGMTVAGGASHREWDLPIYVISVEPGGVISRDGRIKTGDILLNVDGVELTEVSRSEAVALLKRTSSSIVLKALEVKEYEPQEDCSSPAALDSNHNMAPPSDWSPSWVMWLELPRCLYNCKDIVLRRNTAGSLGFCIVGGYEEYNGNKPFFIKSIVEGTPAYNDGRIRCGDILLAVNGRSTSGMIHACLARLLKELKGRITLTIVSWPGTFL
partner: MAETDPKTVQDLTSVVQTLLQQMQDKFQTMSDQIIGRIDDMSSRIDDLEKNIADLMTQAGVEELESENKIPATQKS
B3: Zinc finger protein ZXDC (Homo sapiens), Q2QGD7 (parent)
chain: MDLPALLPAPTARGGQHGGGPGPLRRAPAPLGASPARRRLLLVRGPEDGGPGARPGEASGPSPPPAEDDSDGDSFLVLLEVPHGGAAAEAAGSQEAEPGSRVNLASRPEQGPSGPAAPPGPGVAPAGAVTISSQDLLVRLDRGVLALSAPPGPATAGAAAPRRAPQASGPSTPGYRCPEPQCALAFAKKHQLKVHLLTHGGGQGRRPFKCPLEGCGWAFTTSYKLKRHLQSHDKLRPFGCPVGGCGKKFTTVYNLKAHMKGHEQESLFKCEVCAERFPTHAKLSSHQRSHFEPERPYKCDFPGCEKTFITVSALFSHNRAHFREQELFSCSFPGCSKQYDKACRLKIHLRSHTGERPFICDSDSCGWTFTSMSKLLRHRRKHDDDRRFTCPVEGCGKSFTRAEHLKGHSITHLGTKPFECPVEGCCARFSARSSLYIHSKKHVQDVGAPKSRCPVSTCNRLFTSKHSMKAHMVRQHSRRQDLLPQLEAPSSLTPSSELSSPGQSELTNMDLAALFSDTPANASGSAGGSDEALNSGILTIDVTSVSSSLGGNLPANNSSLGPMEPLVLVAHSDIPPSLDSPLVLGTAATVLQQGSFSVDDVQTVSAGALGCLVALPMKNLSDDPLALTSNSNLAAHITTPTSSSTPRENASVPELLAPIKVEPDSPSRPGAVGQQEGSHGLPQSTLPSPAEQHGAQDTELSAGTGNFYLESGGSARTDYRAIQLAKEKKQRGAGSNAGASQSTQRKIKEGKMSPPHFHASQNSWLCGSLVVPSGGRPGPAPAAGVQCGAQGVQVQLVQDDPSGEGVLPSARGPATFLPFLTVDLPVYVLQEVLPSSGGPAGPEATQFPGSTINLQDLQ
B4: Acetylcholine receptor subunit gamma (Homo sapiens), P07510 (parent)
chain: MHGGQGPLLLLLLLAVCLGAQGRNQEERLLADLMQNYDPNLRPAERDSDVVNVSLKLTLTNLISLNEREEALTTNVWIEMQWCDYRLRWDPRDYEGLWVLRVPSTMVWRPDIVLENNVDGVFEVALYCNVLVSPDGCIYWLPPAIFRSACSISVTYFPFDWQNCSLIFQSQTYSTNEIDLQLSQEDGQTIEWIFIDPEAFTENGEWAIQHRPAKMLLDPAAPAQEAGHQKVVFYLLIQRKPLFYVINIIAPCVLISSVAILIHFLPAKAGGQKCTVAINVLLAQTVFLFLVAKKVPETSQAVPLISKYLTFLLVVTILIVVNAVVVLNVSLRSPHTHSMARGVRKVFLRLLPQLLRMHVRPLAPAAVQDTQSRLQNGSSGWSITTGEEVALCLPRSELLFQQWQRQGLVAAALEKLEKGPELGLSQFCGSLKQAAPAIQACVEACNLIACARHQQSHFDNGNEEWFLVGRVLDRVCFLAMLSLFICGTAGIFLMAHYNRVPALPFPGDPRPYLPSPD
partner: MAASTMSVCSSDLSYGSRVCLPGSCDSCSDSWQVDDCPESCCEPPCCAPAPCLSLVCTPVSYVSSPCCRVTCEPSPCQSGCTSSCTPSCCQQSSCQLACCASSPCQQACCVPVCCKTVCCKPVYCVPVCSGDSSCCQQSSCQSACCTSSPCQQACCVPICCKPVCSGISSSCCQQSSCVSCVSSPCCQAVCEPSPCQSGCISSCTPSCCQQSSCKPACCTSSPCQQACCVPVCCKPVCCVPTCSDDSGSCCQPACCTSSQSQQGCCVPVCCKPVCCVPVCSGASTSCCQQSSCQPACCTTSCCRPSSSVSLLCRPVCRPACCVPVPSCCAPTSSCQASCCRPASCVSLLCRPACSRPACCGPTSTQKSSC
B5: E3 ubiquitin-protein ligase LNX (Homo sapiens), Q8TBB1 (parent)
chain: B2 chain
partner: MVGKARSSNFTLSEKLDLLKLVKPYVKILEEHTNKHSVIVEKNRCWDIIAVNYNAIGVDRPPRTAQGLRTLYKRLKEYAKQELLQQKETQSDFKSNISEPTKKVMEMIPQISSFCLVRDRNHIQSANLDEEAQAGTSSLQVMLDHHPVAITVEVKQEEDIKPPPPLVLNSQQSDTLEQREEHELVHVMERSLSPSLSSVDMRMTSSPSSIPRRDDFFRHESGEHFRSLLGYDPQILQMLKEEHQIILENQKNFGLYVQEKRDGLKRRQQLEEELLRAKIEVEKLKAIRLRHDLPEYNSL
B6: E3 ubiquitin-protein ligase LNX (Homo sapiens), Q8TBB1 (parent)
chain: B2 chain
partner: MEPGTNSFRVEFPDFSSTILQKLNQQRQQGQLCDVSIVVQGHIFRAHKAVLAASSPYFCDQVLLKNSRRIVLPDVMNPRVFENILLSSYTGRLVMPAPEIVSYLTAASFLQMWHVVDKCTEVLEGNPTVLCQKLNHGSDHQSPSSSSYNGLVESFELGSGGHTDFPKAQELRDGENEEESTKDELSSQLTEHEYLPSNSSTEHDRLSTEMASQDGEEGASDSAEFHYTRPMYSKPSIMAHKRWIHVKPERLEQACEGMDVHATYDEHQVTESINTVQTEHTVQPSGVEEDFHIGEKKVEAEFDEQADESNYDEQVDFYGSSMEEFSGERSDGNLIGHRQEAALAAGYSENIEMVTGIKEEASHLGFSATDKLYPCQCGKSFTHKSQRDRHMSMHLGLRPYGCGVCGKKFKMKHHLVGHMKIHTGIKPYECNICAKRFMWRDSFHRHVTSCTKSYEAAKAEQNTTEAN
B7: E3 ubiquitin-protein ligase LNX (Homo sapiens), Q8TBB1 (parent)
chain: B2 chain
partner: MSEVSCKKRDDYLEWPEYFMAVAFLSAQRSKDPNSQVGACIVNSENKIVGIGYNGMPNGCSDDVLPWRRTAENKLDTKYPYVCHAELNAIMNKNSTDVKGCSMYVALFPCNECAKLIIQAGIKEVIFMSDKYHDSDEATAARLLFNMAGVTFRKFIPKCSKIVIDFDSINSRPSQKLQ
B8: E3 ubiquitin-protein ligase LNX (Homo sapiens), Q8TBB1 (parent)
chain: B2 chain
partner: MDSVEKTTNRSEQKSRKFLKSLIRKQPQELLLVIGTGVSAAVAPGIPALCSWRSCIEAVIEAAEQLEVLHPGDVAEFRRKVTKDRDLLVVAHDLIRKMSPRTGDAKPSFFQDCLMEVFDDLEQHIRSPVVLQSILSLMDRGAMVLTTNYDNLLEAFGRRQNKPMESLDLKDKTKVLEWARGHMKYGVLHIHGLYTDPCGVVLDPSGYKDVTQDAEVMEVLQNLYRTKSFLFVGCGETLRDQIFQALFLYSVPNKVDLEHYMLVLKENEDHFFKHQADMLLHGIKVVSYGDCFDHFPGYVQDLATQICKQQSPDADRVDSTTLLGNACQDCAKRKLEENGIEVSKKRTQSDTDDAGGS

Variants of: B1
Details: with magab_human MAGEA11, P43364

effect of a mutation on the interaction | Variant
with no effect | I476T

Variants of: B2
Details: with hsbp1_human HSBP1, O75506

effect of a mutation on the interaction | Variant
disrupting interaction strength | E295K

Variants of: B3
Details: with wdr5_human WDR5, P61964

effect of a mutation on the interaction | Variant
with no effect | T589M

Variants of: B4
Details: with kr107_human KRTAP10-7, P60409

effect of a mutation on the interaction | Variant
with no effect | I448T

Variants of: B5
Details: with fsbp_human FSBP

effect of a mutation on the interaction | Variant
disrupting interaction strength | E295K

Variants of: B6
Details: with zbt43_human ZBTB43, O43298

effect of a mutation on the interaction | Variant
disrupting interaction strength | E295K

Variants of: B7
Details: with dctd_human DCTD

effect of a mutation on the interaction | Variant
disrupting interaction strength | E295K

Variants of: B8
Details: with FAM118A

effect of a mutation on the interaction | Variant
disrupting interaction strength | E295K
